First the molecules themselves.
B4: Human papillomavirus 11 E1 (other)
chain: MADDSGTENEGSGCTGWFMVEAIVEHTTGTQISEDEEEEVEDSGYDMVDFIDDRHITQNSVEAQALFNRQEADAHYATVQDLKRKYLGSPYVSPISNVANAVESEISPRLDAIKLTTQPKKVKRRLFETRELTDSGYGYSEVEAATQVEKHGDPENGGDGQERDTGRDIEGEGVEHREAEAVDDSTREHADTSGILELLKCKDIRSTLHGKFKDCFGLSFVDLIRPFKSDRTTCADWVVAGFGIHHSIADAFQKLIEPLSLYAHIQWLTNAWGMVLLVLIRFKVNKSRCTVARTLGTLLNIPENHMLIEPPKIQSGVRALYWFRTGISNASTVIGEAPEWITRQTVIEHSLADSQFKLTEMVQWAYDNDICEESEIAFEYAQRGDFDSNARAFLNSNMQAKYVKDCAIMCRHYKHAEMKKMSIKQWIKYRGTKVDSVGNWKPIVQFLRHQNIEFIPFLSKLKLWLHGTPKKNCIAIVGPPDTGKSCFCMSLIKFLGGTVISYVNSCSHFWLQPLTDAKVALLDDATQPCWTYMDTYMRNLLDGNPMSIDRKHRALTLIKCPPLLVTSNIDISKEEKYKYLHSRVTTFTFPNPFPFDRNGNAVYELSDANWKCFFERLSSSLDIEDSEDEEDGSNSQAFRCVPGSVVRTL
notes: also called HPV 11 E1; cbe_251663
B5: HPV 16 E1-E4 (other)
chain: MADPAAATKYPLLKLLGSTWPTTPPRPIPKPSPWAPKKHRRLSSDQDQSQTPETPATPLSCCTETQWTVLQSSLHLTAHTKDGLTVIVTLHP
notes: also called cbe_251059
B6: Human papillomavirus 11 E7 (other)
chain: MHGRLVTLKDIVLDLQPPDPVGLHCYEQLEDSSEDEVDKVDKQDAQPLTQHYQILTCCCGCDSNVRLVVECTDGDIRQLQDLLLGTLNIVCPICAPKP
notes: also called HPV 11 E7; cbe_250834

Assay [1] addresses B4. Description: Y2H; INT ID 51.
The assay “HPV 16 E1-E4” has as its target B5. As to the kind of experiment: Y2H; INT ID 141.
The target in assay [2] is B6. As to the kind of experiment: Y2H; INT ID 38.
The target in the next assay is T1, DKFZP434I1735 protein (human, UniProt Q86XA9 451-2040).
T1 construct: also called cbe_3643627
As to the kind of experiment: Y2H; INT ID 50.

A further assay deals with T2, PCDH1 (human, UniProt Q08174 58-1060).
T2 construct: also called cbe_4269156
T2 sequence: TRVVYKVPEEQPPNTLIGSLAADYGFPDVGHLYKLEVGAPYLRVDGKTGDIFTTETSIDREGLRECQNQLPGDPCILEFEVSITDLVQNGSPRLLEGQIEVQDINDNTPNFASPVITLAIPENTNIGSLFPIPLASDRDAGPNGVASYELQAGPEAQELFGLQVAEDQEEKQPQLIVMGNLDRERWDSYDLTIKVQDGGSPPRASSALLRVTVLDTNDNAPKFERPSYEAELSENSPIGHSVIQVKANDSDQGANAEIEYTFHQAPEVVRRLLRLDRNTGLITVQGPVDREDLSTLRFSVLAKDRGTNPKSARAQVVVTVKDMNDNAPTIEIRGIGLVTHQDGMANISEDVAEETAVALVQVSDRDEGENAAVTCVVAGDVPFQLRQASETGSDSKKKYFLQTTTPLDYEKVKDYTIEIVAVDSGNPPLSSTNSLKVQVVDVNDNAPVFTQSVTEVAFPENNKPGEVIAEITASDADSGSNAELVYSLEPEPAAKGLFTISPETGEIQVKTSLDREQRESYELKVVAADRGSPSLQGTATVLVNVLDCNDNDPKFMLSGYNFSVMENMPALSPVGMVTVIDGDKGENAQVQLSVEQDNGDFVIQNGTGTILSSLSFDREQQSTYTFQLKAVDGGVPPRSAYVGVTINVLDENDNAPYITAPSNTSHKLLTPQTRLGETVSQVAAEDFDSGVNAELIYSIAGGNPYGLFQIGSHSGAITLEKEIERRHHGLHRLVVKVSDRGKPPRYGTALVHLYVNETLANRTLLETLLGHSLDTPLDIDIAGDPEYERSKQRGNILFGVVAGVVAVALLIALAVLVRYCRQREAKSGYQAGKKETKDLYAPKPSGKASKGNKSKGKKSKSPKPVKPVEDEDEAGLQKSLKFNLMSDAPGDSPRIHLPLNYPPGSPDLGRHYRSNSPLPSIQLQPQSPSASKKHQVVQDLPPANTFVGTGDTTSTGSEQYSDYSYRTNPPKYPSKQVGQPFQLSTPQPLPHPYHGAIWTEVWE
Description: Y2H; INT ID 142.

The next assay deals with T3, RABIF (human, UniProt P47224 1-123).
T3 construct: also called cbe_3472582
T3 sequence: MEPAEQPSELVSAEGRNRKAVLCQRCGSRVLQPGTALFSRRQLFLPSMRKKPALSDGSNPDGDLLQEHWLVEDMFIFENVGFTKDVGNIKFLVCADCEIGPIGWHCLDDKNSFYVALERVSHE
Description: Y2H; INT ID 139.

The target of assay [3] is T4, PEST-containing nuclear protein (human, UniProt Q8WW12 2-178).
T4 construct: also called pcnp; PCNP
T4 sequence: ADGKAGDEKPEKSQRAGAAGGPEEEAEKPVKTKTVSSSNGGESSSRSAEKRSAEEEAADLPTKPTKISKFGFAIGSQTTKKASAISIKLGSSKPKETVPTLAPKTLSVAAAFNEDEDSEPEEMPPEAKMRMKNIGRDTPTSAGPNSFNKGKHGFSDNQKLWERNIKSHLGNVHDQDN
As to the kind of experiment: Y2H; INT ID 140.

The target in a further assay is T5, ITGB4 (human, UniProt P16144 28-1822).
T5 construct: also called cbe_4280774
As to the kind of experiment: Y2H; INT ID 49.

In the next assay the target is T6, PTPN21 (human, UniProt Q16825 1-1174).
T6 construct: also called cbe_4260642
T6 sequence: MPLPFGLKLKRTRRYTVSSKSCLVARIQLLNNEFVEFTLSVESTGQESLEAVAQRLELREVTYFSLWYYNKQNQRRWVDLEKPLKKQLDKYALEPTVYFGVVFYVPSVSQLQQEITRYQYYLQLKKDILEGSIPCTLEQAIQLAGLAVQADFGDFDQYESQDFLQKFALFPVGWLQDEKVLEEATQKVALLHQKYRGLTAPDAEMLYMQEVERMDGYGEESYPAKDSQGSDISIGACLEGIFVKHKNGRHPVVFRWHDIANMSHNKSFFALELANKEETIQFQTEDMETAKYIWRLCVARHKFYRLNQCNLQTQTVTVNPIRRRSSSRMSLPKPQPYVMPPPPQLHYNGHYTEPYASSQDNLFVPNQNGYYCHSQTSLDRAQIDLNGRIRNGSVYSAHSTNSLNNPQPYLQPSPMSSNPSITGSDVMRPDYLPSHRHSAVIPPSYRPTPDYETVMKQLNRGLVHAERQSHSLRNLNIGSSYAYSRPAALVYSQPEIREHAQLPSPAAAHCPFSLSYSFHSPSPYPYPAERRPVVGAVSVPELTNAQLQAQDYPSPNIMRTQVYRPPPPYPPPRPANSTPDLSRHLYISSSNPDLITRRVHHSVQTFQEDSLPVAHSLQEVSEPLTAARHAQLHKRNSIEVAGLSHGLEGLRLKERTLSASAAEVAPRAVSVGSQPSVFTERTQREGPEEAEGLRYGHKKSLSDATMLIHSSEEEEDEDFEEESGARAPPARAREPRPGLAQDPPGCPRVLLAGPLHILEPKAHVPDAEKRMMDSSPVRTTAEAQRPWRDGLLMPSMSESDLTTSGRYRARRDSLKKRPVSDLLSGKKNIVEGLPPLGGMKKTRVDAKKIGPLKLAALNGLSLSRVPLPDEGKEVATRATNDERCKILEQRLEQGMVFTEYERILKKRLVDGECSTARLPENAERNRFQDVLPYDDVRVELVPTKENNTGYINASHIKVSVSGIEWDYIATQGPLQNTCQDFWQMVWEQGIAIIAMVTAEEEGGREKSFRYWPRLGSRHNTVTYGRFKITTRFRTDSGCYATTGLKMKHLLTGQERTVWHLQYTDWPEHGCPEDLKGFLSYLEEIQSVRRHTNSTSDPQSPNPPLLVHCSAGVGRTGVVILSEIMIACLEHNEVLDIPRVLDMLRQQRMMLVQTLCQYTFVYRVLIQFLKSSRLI
As to the kind of experiment: Y2H; INT ID 41.

For assay [4], the target named is T7, signal-induced proliferation-associated 1 like 1 (human, UniProt O43166 1-1804).
T7 construct: also called KIAA0440; cbe_3056756
As to the kind of experiment: Y2H; INT ID 37.

These results are taken from patent US20050100554A1 (published 2005).

T1 sequence (Q86XA9 451-2040 V880M limits assumed): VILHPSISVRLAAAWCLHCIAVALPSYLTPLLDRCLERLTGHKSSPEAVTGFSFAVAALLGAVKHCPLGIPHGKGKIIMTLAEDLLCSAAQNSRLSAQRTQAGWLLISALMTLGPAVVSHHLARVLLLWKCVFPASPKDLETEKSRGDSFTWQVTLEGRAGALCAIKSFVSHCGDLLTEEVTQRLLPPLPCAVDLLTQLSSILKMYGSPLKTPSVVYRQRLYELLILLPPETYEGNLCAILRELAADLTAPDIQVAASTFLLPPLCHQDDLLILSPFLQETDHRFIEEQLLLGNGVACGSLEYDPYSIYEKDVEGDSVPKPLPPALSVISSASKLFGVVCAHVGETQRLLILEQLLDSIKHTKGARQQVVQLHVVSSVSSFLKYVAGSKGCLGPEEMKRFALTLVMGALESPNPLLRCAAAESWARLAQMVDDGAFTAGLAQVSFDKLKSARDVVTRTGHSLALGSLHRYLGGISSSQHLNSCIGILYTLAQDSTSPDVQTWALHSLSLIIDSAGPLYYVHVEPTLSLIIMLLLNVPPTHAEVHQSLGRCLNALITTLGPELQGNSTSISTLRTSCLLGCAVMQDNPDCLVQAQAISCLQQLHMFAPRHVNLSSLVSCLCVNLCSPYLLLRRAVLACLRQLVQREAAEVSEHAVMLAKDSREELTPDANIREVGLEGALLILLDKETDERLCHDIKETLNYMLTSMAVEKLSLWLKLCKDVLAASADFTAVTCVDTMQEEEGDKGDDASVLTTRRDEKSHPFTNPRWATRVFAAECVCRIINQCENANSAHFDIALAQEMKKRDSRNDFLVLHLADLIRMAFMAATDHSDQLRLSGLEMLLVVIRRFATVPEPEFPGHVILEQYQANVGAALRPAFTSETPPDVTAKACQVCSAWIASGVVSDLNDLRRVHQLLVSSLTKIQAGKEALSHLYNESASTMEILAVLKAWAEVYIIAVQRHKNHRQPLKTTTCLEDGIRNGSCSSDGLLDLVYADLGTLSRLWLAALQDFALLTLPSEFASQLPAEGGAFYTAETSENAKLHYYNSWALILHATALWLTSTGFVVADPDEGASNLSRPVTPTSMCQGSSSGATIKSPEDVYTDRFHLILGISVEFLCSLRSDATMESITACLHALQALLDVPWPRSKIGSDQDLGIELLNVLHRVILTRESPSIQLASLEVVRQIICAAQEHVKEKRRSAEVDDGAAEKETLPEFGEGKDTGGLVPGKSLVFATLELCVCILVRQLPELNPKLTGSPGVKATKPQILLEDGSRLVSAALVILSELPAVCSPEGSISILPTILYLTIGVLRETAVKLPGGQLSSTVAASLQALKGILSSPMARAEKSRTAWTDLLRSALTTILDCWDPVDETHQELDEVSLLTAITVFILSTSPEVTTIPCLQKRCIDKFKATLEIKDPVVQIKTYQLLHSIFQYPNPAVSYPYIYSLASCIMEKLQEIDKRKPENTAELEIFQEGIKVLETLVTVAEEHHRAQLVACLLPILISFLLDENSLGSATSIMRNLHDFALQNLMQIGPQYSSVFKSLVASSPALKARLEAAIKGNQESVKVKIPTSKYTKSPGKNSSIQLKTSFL
T5 sequence (P16144 28-1822 limits assumed): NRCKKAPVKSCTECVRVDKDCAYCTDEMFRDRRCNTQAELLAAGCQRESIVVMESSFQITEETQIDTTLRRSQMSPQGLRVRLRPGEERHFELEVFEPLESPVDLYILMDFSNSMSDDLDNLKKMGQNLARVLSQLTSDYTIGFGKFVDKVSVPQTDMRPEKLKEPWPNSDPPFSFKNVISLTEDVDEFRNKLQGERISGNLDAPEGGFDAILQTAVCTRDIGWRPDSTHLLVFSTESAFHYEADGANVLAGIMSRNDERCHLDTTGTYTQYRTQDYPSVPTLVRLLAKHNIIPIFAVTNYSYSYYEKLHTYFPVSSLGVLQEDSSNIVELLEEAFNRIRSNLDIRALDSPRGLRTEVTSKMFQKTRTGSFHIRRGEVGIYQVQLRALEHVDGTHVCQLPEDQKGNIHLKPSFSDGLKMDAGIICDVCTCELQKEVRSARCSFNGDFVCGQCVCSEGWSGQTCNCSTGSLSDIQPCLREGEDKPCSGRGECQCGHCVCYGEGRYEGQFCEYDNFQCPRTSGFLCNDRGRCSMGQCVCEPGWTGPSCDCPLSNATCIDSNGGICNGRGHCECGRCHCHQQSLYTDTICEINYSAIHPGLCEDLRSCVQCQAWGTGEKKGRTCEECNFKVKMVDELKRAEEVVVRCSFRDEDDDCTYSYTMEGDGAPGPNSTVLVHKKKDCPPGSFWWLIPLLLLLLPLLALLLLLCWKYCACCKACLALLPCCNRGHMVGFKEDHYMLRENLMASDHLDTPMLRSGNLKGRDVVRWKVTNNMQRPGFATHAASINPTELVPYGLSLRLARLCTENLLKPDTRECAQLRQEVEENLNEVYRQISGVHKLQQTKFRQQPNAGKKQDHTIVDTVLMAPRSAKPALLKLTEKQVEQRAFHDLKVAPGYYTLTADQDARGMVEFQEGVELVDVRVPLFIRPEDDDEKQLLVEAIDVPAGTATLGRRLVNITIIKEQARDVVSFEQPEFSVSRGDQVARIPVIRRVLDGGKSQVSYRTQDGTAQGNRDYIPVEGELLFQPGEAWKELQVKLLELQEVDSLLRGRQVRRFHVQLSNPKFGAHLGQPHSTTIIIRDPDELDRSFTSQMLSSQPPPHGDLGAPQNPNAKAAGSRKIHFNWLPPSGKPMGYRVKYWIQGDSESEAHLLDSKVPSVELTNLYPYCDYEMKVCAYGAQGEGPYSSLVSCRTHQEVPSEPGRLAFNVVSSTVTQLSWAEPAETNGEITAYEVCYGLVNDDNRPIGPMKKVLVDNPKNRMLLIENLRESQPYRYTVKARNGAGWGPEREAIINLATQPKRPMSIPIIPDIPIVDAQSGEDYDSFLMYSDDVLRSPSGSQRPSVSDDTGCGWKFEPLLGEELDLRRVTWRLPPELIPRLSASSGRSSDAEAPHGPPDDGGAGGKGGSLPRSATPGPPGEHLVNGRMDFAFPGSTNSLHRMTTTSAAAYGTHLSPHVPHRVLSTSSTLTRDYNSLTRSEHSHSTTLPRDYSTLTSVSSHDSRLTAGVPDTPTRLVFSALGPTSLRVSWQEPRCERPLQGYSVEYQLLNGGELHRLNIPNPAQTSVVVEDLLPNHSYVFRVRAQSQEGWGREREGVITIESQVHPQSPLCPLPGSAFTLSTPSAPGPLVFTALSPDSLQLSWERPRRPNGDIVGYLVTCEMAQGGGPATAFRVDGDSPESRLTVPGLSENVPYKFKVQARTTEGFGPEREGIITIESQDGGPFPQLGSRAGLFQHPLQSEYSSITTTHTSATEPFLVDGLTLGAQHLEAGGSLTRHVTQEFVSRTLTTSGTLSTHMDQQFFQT

B1: proteosome (prosome, macropain) subunit, beta type, 3 (other)
chain: SIMSYNGGAVMAMKGKNCVAIAADRRFGIQAQLVTTDFQKIFPMGDRLYIGLAGLATDVQTVAQRLKFRLNLYELKEGRQIKPYTLMSMVANLLYEKRFGPYYTEPVIAGLDPKTFKPFICSLDLIGCPMVTDDFVVSGTCAEQMYGMCESLWEPNMDPDHLFETISQAMLNAVDRDAVSGMGVIVHIIEKDKITTRTLKARMD
notes: also called PSMB3; cbe_3842044
As to B1, the binding result in assay [1] was “binds”.

B2: hypothetical protein FLJ20343 (other)
chain: MAQPHTTSVPYFARSPAPPPPSRSGAPPQPPATLRPSRRRTRPPRPADRRDAPADCAYLWRILTPRRGRARRSDVGARHRACGRRDVLLSRQGPANPEGARRVVGGQERVWPAVRRGRGGSMFRLLSWSLGRGFLRAAGRRCRGCSARLLPGLAGGPGPEVQVPPSRVAPHGRGPGLLPLLAALAWFSRPAAAEEEEQQGADGAAAEDGADEAEAEIIQLLKRAKLSIMKDEPEEAELILHDALRLAYQTDNKKAITYTYDLMANLAFIRGQLENAEQLFKATMSYLLGGGMKQEDNAIIEISLKLASIYAAQNRQEFAVAGYEFCISTLEEKIEREKELAEDIMSVEEKANTHLLLGMCLDACARYLLFSKQPSQAQRMYEKALQISEEIQGERHPQTIVLMSDLATTLDAQGRFDEAYIYMQRASDLARQINHPELHMVLSNLAAVLMHRERYTQAKEIYQEALKQAKLKKDEISVQHIREELAELSKKSRPLTNSVKL
notes: also called cbe_3880186
Turning to B2, the binding result with HPV 16 E1-E4 is recorded as “binds”.

B3: gbh_af252829 (other)
chain: MGKKQNRKTGNSKTQSTSPPPKERSSSPATDQSWMENDFDELREEGFRRSNYSELREDIQTKGKEVENFEKNLEECITRITNTEKCLKELMELKTKARELREECRSLRSQCDQLEERVSAMEDEMNEMKQEGKFREKRIKRNEQSLQEIWDYVKRPNLRLIGVPESDAENGTKLENTLQDIIQETFPNLARQANVQIQEIQRTPQRYSSRRATPRHIIVRFTKVEMKEKMLRAAREKGRVTLKGKPIRLTADLSAETLQARREWGPILNILKEKNFQPRISYPAKLSFISEGEIKYFTDKQMLTDFVTSRPALKELLKEALNMERNNRYQPLQNHAKM
notes: also called Homo sapiens chromosome 8 clone BAC 495D4 map 8q24; cbe_3454406
Take B3: the binding result in assay [2] is “binds”.

Turning to B4, the binding result in the assay with DKFZP434I1735 protein is on record as “binds”.

For the molecule B5, the binding result (with PCDH1; with RABIF; in [3]) was “binds” in each case.

Turning to B6, the binding result (with ITGB4; with PTPN21; in [4]) was “binds” in each case.
